Data: patent CN115873113A (SHANGHAI INST MATERIA MEDICA CAS, dated 2023)

T1: Biotin-CaSR蛋白 (人体细胞外钙敏感受体, Human extracellular calcium-sensing receptor) (human, UniProt P41180 20-870, limits assumed, biotinylated (Biotin-CaSR); site not stated)
T1 construct: Purified, detergent-solubilised CaSR; It was biotinylated and captured on NeutrAvidin plates for ELISA or on streptavidin biosensors for Octet
T1 sequence (looked up): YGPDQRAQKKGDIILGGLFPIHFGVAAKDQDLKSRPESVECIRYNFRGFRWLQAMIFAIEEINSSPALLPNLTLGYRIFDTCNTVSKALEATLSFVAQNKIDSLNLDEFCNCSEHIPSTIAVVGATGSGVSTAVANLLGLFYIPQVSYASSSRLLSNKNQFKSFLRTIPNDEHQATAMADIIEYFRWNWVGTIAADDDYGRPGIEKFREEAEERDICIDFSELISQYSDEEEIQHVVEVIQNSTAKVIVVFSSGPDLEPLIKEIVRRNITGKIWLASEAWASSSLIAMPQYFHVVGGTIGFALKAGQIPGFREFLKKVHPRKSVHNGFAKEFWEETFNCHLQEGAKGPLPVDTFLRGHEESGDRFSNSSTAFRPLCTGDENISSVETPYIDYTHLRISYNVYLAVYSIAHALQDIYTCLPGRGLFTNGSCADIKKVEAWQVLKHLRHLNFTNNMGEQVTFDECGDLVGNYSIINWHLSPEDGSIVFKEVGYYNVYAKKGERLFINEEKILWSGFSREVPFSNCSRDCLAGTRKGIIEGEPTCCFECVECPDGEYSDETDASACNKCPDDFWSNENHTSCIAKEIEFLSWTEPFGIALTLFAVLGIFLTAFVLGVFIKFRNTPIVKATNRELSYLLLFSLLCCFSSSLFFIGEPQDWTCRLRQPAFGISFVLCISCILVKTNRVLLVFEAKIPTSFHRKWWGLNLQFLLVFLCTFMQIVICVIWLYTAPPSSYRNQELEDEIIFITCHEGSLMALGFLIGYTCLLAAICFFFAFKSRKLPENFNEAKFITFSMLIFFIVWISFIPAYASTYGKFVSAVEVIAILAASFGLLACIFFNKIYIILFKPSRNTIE

T2: CaSR (细胞内钙流实验中的受体) (human, UniProt P41180 20-1078)
T2 sequence (looked up): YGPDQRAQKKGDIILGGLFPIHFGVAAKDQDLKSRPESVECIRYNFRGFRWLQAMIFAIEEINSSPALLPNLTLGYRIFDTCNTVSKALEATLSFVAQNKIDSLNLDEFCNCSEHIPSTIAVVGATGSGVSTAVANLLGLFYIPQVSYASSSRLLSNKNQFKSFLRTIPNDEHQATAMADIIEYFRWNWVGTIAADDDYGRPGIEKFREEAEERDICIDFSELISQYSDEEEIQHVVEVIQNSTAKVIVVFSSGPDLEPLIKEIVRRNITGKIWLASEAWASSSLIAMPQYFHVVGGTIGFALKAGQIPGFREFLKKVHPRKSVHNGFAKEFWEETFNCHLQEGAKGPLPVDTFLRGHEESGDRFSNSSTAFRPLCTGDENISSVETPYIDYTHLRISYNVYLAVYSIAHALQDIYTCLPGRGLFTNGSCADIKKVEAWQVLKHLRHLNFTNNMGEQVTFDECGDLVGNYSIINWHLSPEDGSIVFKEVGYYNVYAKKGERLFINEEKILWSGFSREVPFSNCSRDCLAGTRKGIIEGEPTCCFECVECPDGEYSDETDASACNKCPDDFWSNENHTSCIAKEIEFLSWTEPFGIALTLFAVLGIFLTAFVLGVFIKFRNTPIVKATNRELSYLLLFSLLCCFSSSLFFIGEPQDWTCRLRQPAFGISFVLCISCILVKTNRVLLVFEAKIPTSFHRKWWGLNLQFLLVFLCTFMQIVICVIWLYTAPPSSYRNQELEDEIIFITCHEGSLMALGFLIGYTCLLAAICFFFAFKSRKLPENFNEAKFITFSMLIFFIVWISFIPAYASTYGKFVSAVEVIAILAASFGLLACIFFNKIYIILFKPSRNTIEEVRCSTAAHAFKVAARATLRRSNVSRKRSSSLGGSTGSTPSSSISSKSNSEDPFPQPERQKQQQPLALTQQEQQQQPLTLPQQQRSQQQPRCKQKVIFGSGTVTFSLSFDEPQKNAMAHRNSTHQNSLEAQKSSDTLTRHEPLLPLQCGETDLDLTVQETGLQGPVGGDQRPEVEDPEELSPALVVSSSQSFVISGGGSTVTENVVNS

B1: 纳米抗体1C12 (VHH)
VHH: QVQLQESGGGSVQAGGSLRLSCTASRYTYNSPLYMAWFRQAPGKEREGVAHIDSDGSITYTDSVKGRFTISRDNAKTTLYLQMNNLNPEDTAMYYCAADPLHRWSHRLEAIGYRYWGQGTQVTVSS
notes: Camel VHH expressed in E. coli and purified on a nickel column; also called 抗体株1C12
B2: 纳米抗体NB32 (VHH)
VHH: QVQLQESGGGSVQAGGSLTLSCAASEYKHRYSTYSMGWFRQAPGKEREGVAAIYSDGGTRYADSVKGRFTISKDNAKSTLYLLMNSLKPEDTAMYYCAASQTFRGWYPYEYNYWGQGTQVTVSS
notes: Camel VHH expressed in E. coli and purified on a nickel column; It was detected through an HA tag; also called 抗体株NB32
B3: 纳米抗体2D11 (VHH)
VHH: QVQLQESGGGSVQAGGSLRLSCAASGFPISTYDMGWFRQAPGKEREGVVGITDSFSIKYEDSVKGRFTISRDNAKNALYLQMNSLKPEDTGMYYCAAGDARWSLLLRAEQYNYWGQGTQVTVSS
notes: Camel VHH expressed in E. coli and purified on a nickel column; It was detected through an HA tag; also called 抗体株2D11
B4: 纳米抗体2D4 (VHH)
VHH: LQESGGGSVQIGGSLRLSCAASGYTYMRYSSFCMGWFRQAPGKEREGVAAIDSGRRTTHADSVKGRFTISRDNAKNTLYLQMNSLKPEDTAMYYCAARDVGYCGGYWARRDFAYWGQGTQVTVSS
notes: Camel VHH expressed in E. coli and purified on a nickel column; It was detected through an HA tag; also called 抗体株2D4
B5: 纳米抗体NB88 (VHH)
VHH: QVQLQESGGGSVQAGESLRLSCAASRYGYSRNWMGWFRQPPGKEREGVAVIYTGGSKTAYADAVKGRFIISLDNANNTVYLQMNSLKPEDTAMYYCAAGLVAYGRRWSPEAYKYWGQGTQVTVSS
notes: Camel VHH expressed in E. coli and purified on a nickel column; It was detected through an HA tag; also called 抗体株NB88

Columns and labels:
[1] = target: T1, Biotin-CaSR蛋白 (人体细胞外钙敏感受体, Human …); test: BLI (Octet-Red96), Biotin-CaSR on streptavidin biosensor, nanobody in solution
[2] = target: T2, CaSR (细胞内钙流实验中的受体); test: cell-based or functional assay
[3] = target: T1, Biotin-CaSR蛋白 (人体细胞外钙敏感受体, Human …); test: ELISA, Biotin-CaSR on NeutrAvidin plate, nanobody titrated 1e-11 to 1e-6 mol/l, anti-HA detection

Binder	Kd [1] [nM]	钙流 IC50 (细胞外钙离子浓度1.2mM) [2] [nM]	EC50 [3]
B1	0.9	107	2.1
B2	3.2	301	3
B3	0.24	41	1.9
B4	0.46	65	0.9
B5	3.9	101	1
